Test results: PMC5634638
Values joined by “and” are separate entries in the source; they are usually repeats but may differ in a detail not shown here. Equal values may be shown once.

Experiments:
[1] = target: Schizosaccharomyces pombe ribosome (S. pombe); test: co-sedimentation; NatA constant at 0.5 μM, ribosome 0.1–11 μM, 30% sucrose cushion; anti-His western blot of Naa15, proportion in the pellet quantified; fit assumes 1:1
[2] = target: Schizosaccharomyces pombe ribosome (S. pombe); test: co-sedimentation; ribosome 1 μM and NatA 1.2 μM layered on Buffer G with 30% sucrose, ultracentrifuged; pellet and supernatant on SDS-PAGE

percent pulldown (highest reached at the ribosome concentrations used) [1] [%] | Kd [1] [µM] | stoichiometry N [2] | Substance
< 30 |  |  | NatA K9E (Naa15 K27E, K28E, K31E, K605E, K606E, K609E, K610E, K612E, K613E with Naa10) (complex)
 | 1.1 | 1.13 and 1.28 | NatA (wild type; Naa15-Naa10 complex of Schizosaccharomyces pombe)
